Publication PMC10153262 (bioRxiv, 2023)

Key:
Assay in all cases: pull-down
[1] = molecular target: Myristoylated GINIP (myr-GINIP), C-terminally His-tagged (human, UniProt Q9UPV7 1-400, myristoylated (co-expression with N-myristoyl transferase))
GINIP ∆N16 = GINIP ∆N16 (human, UniProt Q9UPV7 17-400)
[2] = molecular target: GINIP WT, C-terminally His-tagged (pET21a(+)-GINIP-His) (human, UniProt Q9UPV7 1-400)

Measured: binding result

Chain of GINIP ∆N16 (Q9UPV7 17-400): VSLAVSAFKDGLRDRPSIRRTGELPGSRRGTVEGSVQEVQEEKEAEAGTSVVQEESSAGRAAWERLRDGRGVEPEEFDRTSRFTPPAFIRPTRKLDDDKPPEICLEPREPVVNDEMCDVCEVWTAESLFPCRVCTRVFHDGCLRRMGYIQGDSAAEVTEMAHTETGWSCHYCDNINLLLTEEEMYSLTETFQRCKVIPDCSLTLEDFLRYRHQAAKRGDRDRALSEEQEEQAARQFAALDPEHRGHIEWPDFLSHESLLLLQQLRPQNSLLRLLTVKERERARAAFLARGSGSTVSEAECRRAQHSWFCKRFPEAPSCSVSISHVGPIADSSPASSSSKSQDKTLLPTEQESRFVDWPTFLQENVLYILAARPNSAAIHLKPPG
Chain of GINIP WT, C-terminally His-tagged (pET21a(+)-GINIP-His) (Q9UPV7 whole entry): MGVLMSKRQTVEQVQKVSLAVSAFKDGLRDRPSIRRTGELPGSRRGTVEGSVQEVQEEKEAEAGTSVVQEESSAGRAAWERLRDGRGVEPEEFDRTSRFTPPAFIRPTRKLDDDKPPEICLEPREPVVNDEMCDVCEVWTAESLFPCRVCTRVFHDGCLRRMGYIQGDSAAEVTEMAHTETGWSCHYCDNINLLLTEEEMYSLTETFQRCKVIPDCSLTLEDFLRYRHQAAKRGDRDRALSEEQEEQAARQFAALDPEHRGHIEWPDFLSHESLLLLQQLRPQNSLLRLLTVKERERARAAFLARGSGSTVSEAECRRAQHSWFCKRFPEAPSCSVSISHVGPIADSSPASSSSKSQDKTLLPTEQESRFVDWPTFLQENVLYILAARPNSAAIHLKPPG
Chain of Myristoylated GINIP (myr-GINIP), C-terminally His-tagged (Q9UPV7 whole entry): as above

B1: GST-Gαi3 (natural protein)
chain: MGCTLSAEDKAAVERSKMIDRNLREDGEKAAKEVKLLLLGAGESGKSTIVKQMKIIHEDGYSEDECKQYKVVVYSNTIQSIIAIIRAMGRLKIDFGEAARADDARQLFVLAGSAEEGVMTSELAGVIKRLWRDGGVQACFSRSREYQLNDSASYYLNDLDRISQTNYIPTQQDVLRTRVKTTGIVETHFTFKELYFKMFDVGGQRSERKKWIHCFEGVTAIIFCVALSDYDLVLAEDEEMNRMHESMKLFDSICNNKWFTDTSIILFLNKKDLFEEKIKRSPLTICYPEYTGSNTYEEAAAYIQCQFEDLNRRKDTKEVYTHFTCATDTKNVQFVFDAVTDVIIKNNLKECGLY
binds: all assays above
